For eleven molecules, EC50 results are on record in patent US20240132603A1 (HARBOUR BIOMED US, published 2024).

Like-named read-outs stand apart in the source and are kept apart here.

The target of assay [1] is T1, human CCR8 (human, UniProt P51685 1-355).
T1 construct: whole, on cells; construct used for the overexpressing cell lines is not described; also called hCCR8
The assay is described as follows: FACS, CHO-K1-hCCR8 cells, Fab. The procedure:
(§1) Cells overexpressing human CCR8 were digested with pancreatin, counted and resuspended to a cell density of 1E6 cells/mL. The cell suspension was added to a 96-well V-bottom plate at 100 μL/well and centrifuged at 300 g for 5 min, and the supernatant was discarded. The anti-CCR8 antibodies provided herein was used as a primary antibody and diluted in a 5-fold gradient with an FACS buffer (DPBS containing 2% FBS) from 200 nM. The diluted primary antibody was added at 100 μL/well to resuspend the cells, and the mixture was incubated at 4° C. for 1 h. The plate was washed twice with DPBS and centrifuged at 300×g for 5 min, and the supernatant was discarded. The secondary antibody diluted in a 1:1000 ratio with an FACS buffer was added at 100 μL/well to suspend the cells, and the mixture was incubated at 4° C. for 40 min. The plate was washed twice with DPBS and centrifuged at 300×g for 5 min, and the supernatant was discarded. DPBS was added at 200 μL/well to suspend the cells, and the mixture was loaded on an FACS machine for analysis.
A general note: In flow cytometry, cells or beads pass a laser one at a time.

Assay [2] deals with T2, cynomolgus monkey CCR8 (cynomolgus monkey, UniProt G7NYJ2 1-355).
T2 construct: whole, on cells; also called CynoCCR8
T2 sequence (G7NYJ2 entry or part of it): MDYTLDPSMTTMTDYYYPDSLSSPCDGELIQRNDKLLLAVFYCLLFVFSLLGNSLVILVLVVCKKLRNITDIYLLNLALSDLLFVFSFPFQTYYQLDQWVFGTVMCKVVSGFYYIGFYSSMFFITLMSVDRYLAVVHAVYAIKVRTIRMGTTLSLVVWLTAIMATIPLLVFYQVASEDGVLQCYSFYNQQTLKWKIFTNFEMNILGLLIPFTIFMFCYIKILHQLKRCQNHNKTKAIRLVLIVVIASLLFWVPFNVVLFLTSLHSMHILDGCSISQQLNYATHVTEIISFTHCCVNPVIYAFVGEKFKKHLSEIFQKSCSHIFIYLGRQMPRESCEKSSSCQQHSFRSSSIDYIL
The assay is described as follows: FACS, CHO-K1-CynoCCR8 cells. The procedure:
as §1, with “cynomolgus monkey CCR8, CHO-K1-CynoCCR8,” for “human CCR8”

The target in assay [3] is T1, human CCR8. Put plainly: FACS, CHO-K1-hCCR8 cells. The method, boiled down:
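CCR8-overexpressing cells were stained for 1 h at 4 °C with anti-CCR8 antibodies in a 5-fold series from 200 nM. After a 1:1000 secondary antibody for 40 min at 4 °C, binding was read by flow cytometry.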

Assay [4] has as its target T1, human CCR8. Put plainly: FACS, CHO-K1-hCCR8 cells. The procedure: as §1
This is another data set of the same source.

Assay [5] addresses T1, human CCR8. Put plainly: FACS, HEK293-hCCR8 cells. The procedure: as §1
For assay [6], the target named is T2, cynomolgus monkey CCR8. Put plainly: FACS, CHO-K1-CynoCCR8 cells. The procedure:
as §1, with “cynomolgus monkey CCR8, CHO-K1-CynoCCR8,” for “human CCR8”
The source holds these as a separate data set.

T1 sequence (P51685 whole entry): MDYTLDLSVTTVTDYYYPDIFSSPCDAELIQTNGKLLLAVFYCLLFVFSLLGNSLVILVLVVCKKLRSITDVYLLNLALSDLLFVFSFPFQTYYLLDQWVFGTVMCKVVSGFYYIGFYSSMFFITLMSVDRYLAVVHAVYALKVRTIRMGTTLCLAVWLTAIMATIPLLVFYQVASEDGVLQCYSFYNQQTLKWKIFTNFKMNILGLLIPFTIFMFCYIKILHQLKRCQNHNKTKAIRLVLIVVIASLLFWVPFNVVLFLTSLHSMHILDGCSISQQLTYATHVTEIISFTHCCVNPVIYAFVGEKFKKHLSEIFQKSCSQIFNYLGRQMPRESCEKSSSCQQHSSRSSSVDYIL

B1: PR005750 (Fab, V domains shown)
VH: EVQLVESGGGLVKPGGSLRLSCAASGFTFSTYAMNWVRQAPGKGLEWVGRIRSKSNNYATYYADSVKDRFTISRDDSKSTLYLQMNSLKTEDTAVYYCVRGKENANYYAMDFWGQGTTVTVSS
VL: DIVMTQSPLSLPVTLGQPASISCRSSKSLLHSNAKIYLYWFQQRPGQSPRLLIYRMSNLASGVPDRFSGSGSGTDFTLKISRVEAEDVGVYYCMQHLEYPLTFGQGTKLEIKR
notes: Fab form of the same variable region as PR004666
One may read the EC50 as the midpoint of the concentration-response curve. In the assay with human CCR8 [1], B1 showed an EC50 of 1.56 nM.

B2: PR005754 (Fab, V domains shown)
VH: EVQLVESGGGLVKPGGSLRLSCAASGFTFSTYAMNWVRQAPGKGLEWVGRIRSKSNYYATYYADSVKDRFTISRDDSKSTLYLQMNSLKTEDTAVYYCVRGKEIGNYYAMDFWGQGTTVTVSS
VL: DIVMTQSPLSLPVTLGQPASISCRSSKSLLHSNAKIYLYWFQQRPGQSPRLLIYRMSNLASGVPDRFSGSGSGTDFTLKISRVEAEDVGVYYCMQHLEYPLTFGQGTKLEIKR
As to B2, the EC50 in the assay with human CCR8 [1] was found to be 0.84 nM.

B3: PR005787 (Fab, V domains shown)
VH: EVQLVESGGGLVKPGGSLRLSCAASGFTFSTYAMNWVRQAPGKGLEWVGRIRSKSNYYATYYADSVKDRFTISRDDSKSTLYLQMNSLKTEDTAVYYCVRGKEIGKYYAMDFWGQGTTVTVSS
VL: DIVMTQSPLSLPVTLGQPASISCRSSKSLLHSNAKIYLYWFQQRPGQSPRLLIYRMSNLASGVPDRFSGSGSGTDFTLKISRVEAEDVGVYYCMQHLEYPLTFGQGTKLEIKR
Turning to B3, the EC50 with human CCR8 [1] was 0.74 nM.

B4: PR005763 (Fab, V domains shown)
VH: EVQLVESGGGLVKPGGSLRLSCAASGFTFSTYAMNWVRQAPGKGLEWVGRIRSKSNYYATYYADSVKDRFTISRDDSKSTLYLQMNSLKTEDTAVYYCVRGKEHGKYYAMDFWGQGTTVTVSS
VL: DIVMTQSPLSLPVTLGQPASISCRSSKSLLHSNAKIYLYWFQQRPGQSPRLLIYRMSNLASGVPDRFSGSGSGTDFTLKISRVEAEDVGVYYCMQHLEYPLTFGQGTKLEIKR
B4: a half-maximal effect with human CCR8 [1] (EC50) was put at 0.62 nM.

B5: PR005751 (Fab, V domains shown)
VH: EVQLVESGGGLVKPGGSLRLSCAASGFTFSTYAMNWVRQAPGKGLEWVGRIRSKSNNYATYYADSVKDRFTISRDDSKSTLYLQMNSLKTEDTAVYYCVRGKEHGNYYAMDFWGQGTTVTVSS
VL: DIVMTQSPLSLPVTLGQPASISCRSSKSLLHSNAKIYLYWFQQRPGQSPRLLIYRMSNLASGVPDRFSGSGSGTDFTLKISRVEAEDVGVYYCMQHLEYPLTFGQGTKLEIKR
Consider B5, for which the response with human CCR8 [1] was half-maximal at 1.1 nM (EC50).

B6: PR005753 (Fab, V domains shown)
VH: EVQLVESGGGLVKPGGSLRLSCAASGFTFSTYAMNWVRQAPGKGLEWVGRIRSKSNNYATYYADSVKDRFTISRDDSKSTLYLQMNSLKTEDTAVYYCVRGKEIGNYYAMDFWGQGTTVTVSS
VL: DIVMTQSPLSLPVTLGQPASISCRSSKSLLHSNAKIYLYWFQQRPGQSPRLLIYRMSNLASGVPDRFSGSGSGTDFTLKISRVEAEDVGVYYCMQHLEYPLTFGQGTKLEIKR
For the molecule B6, the EC50 in the assay with human CCR8 [1] stood at 1.19 nM.

B7: PR005752 (Fab, V domains shown)
VH: EVQLVESGGGLVKPGGSLRLSCAASGFTFSTYAMNWVRQAPGKGLEWVGRIRSKSNYYATYYADSVKDRFTISRDDSKSTLYLQMNSLKTEDTAVYYCVRGKEHGNYYAMDFWGQGTTVTVSS
VL: DIVMTQSPLSLPVTLGQPASISCRSSKSLLHSNAKIYLYWFQQRPGQSPRLLIYRMSNLASGVPDRFSGSGSGTDFTLKISRVEAEDVGVYYCMQHLEYPLTFGQGTKLEIKR
In the assay with human CCR8 [1], B7 yielded a 50% effective concentration (EC50) of 0.69 nM.

B8: PR004666 (antibody, human IgG1, kappa)
heavy: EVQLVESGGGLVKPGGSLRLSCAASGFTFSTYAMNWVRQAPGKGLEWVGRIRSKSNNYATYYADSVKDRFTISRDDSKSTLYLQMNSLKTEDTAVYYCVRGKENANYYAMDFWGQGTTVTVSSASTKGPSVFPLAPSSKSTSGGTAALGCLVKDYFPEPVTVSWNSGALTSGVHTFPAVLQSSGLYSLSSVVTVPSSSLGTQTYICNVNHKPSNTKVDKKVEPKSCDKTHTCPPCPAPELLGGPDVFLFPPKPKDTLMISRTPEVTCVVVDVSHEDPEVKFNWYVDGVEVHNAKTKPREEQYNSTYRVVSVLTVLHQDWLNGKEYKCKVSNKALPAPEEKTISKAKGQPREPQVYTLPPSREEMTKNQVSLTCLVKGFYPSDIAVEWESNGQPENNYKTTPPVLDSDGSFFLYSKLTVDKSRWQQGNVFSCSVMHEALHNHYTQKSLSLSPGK
light: DIVMTQSPLSLPVTLGQPASISCRSSKSLLHSNAKIYLYWFQQRPGQSPRLLIYRMSNLASGVPDRFSGSGSGTDFTLKISRVEAEDVGVYYCMQHLEYPLTFGQGTKLEIKRTVAAPSVFIFPPSDEQLKSGTASVVCLLNNFYPREAKVQWKVDNALQSGNSQESVTEQDSKDSTYSLSSTLTLSKADYEKHKVYACEVTHQGLSSPVTKSFNRGEC
notes: PTM site-removed humanized variant of PR004128, IgG1 with DE mutation
Consider B8, for which the EC50 with cynomolgus monkey CCR8 [2] came to 0.37 nM; in the assay with human CCR8 [3], 0.44 nM; in the assay with human CCR8 [4] it was 0.466 nM.

B9: PR004249 (antibody, human IgG1, kappa)
heavy: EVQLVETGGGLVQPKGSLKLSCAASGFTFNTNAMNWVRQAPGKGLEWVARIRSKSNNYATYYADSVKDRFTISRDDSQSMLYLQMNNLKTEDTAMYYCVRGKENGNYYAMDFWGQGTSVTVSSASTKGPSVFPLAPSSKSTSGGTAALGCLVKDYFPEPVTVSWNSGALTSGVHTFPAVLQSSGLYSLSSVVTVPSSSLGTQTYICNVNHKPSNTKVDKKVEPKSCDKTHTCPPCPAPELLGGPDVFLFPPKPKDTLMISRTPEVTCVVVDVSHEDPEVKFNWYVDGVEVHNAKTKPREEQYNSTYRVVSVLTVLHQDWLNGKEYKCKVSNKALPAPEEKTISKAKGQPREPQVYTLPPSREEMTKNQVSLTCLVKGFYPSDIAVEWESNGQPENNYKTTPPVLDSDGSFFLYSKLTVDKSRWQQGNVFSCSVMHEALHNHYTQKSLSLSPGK
light: DIVMTQAAPSVPVTPGESVSISCRSSKSLLHSNGNTYLYWFLQRPGQSPQLLIYRMSNLASGVPDRFSGSGSGTAFTLRISRVEAEDVGVYYCMQHLEYPLTFGAGTKLELKRTVAAPSVFIFPPSDEQLKSGTASVVCLLNNFYPREAKVQWKVDNALQSGNSQESVTEQDSKDSTYSLSSTLTLSKADYEKHKVYACEVTHQGLSSPVTKSFNRGEC
notes: PR004122 with S239D and I332E (DE) in the IgG1 constant region
For the molecule B9, the EC50 in the assay with human CCR8 [5] is 1.22 nM; with cynomolgus monkey CCR8 [6], 3.42 nM.

B10: PR004252 (antibody, human IgG1, kappa)
heavy: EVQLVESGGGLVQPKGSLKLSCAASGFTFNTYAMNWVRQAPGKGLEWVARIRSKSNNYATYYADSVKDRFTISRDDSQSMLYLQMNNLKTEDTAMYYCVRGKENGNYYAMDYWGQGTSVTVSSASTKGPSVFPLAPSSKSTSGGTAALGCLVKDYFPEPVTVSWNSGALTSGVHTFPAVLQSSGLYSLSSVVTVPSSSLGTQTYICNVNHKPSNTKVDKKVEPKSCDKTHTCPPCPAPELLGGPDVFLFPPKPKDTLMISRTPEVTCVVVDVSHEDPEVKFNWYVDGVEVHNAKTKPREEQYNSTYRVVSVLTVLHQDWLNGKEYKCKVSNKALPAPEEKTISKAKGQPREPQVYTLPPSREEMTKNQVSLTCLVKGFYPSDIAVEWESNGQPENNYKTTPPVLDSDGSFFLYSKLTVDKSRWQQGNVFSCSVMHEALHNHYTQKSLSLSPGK
light: DIVMTQAAPSVPVTPGESVSISCRSNKSLLHSNGNTYLYWFLQRPGQSPQLLIYRMSNLASGVPDRFSGSGSGTAFTLRISRVEAEDVGVYYCMQHLEYPLTFGAGTKLEIKRTVAAPSVFIFPPSDEQLKSGTASVVCLLNNFYPREAKVQWKVDNALQSGNSQESVTEQDSKDSTYSLSSTLTLSKADYEKHKVYACEVTHQGLSSPVTKSFNRGEC
notes: PR004131 with S239D and I332E (DE) in the IgG1 constant region
On to B10, for which the EC50 with human CCR8 [5] is 0.98 nM; with cynomolgus monkey CCR8 [6], 3.32 nM.

B11: PR004251 (antibody, human IgG1, kappa)
heavy: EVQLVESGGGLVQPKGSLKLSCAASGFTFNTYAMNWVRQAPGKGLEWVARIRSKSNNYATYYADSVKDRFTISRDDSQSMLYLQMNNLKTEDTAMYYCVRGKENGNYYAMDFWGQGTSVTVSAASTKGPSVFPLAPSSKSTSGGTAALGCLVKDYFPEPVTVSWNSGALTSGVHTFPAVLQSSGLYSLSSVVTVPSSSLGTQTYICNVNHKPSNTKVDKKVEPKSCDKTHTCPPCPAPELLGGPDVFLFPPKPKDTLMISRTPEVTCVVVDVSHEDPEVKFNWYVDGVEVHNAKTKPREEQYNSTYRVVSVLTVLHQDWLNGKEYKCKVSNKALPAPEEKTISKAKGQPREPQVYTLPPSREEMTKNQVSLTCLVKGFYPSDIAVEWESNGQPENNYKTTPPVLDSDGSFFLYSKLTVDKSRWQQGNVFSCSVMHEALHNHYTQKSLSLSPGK
light: DIVMTQAAPSVPVTPGESVSISCRSSKSLLHSNGKIYLYWFLQRPGQSPQLLIYRMSNLASGVPDRFSGSGSGTAFTLRISRVEAEDVGVYYCMQHLEYPLTFGAGTKLEIKRTVAAPSVFIFPPSDEQLKSGTASVVCLLNNFYPREAKVQWKVDNALQSGNSQESVTEQDSKDSTYSLSSTLTLSKADYEKHKVYACEVTHQGLSSPVTKSFNRGEC
notes: PR004128 with S239D and I332E (DE) in the IgG1 constant region
For B11, the EC50 amounted to 3.69 nM with human CCR8 [5] and 8.26 nM with cynomolgus monkey CCR8 [6].
